T1: human corticotrophin releasing hormone receptor type 2 (CRHR2) (human, UniProt Q13324 1-411)
T1 sequence (looked up): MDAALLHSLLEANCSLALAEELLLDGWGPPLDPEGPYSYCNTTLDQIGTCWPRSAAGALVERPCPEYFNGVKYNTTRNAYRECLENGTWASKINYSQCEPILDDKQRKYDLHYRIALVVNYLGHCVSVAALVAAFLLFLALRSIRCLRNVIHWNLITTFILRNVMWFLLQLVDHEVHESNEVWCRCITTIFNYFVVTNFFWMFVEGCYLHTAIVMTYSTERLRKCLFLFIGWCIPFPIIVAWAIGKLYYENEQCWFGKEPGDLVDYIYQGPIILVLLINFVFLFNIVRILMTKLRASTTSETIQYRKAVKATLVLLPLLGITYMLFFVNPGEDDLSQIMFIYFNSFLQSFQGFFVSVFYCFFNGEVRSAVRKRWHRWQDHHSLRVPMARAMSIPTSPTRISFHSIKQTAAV

B1: Cys-variant of stresscopin peptide with N-Ethylsuccinimide (NES) reactive group SEQ ID NO: 45 (peptide)
peptide: TKFTLSLDVPTNIMNLLFNIAKAKNLRAQAAC(Succinimide(1-Et,3-yl))NAHLMAQI-NH2
modifications: N-terminus assumed
SMILES: CC[C@H](C)[C@H](NC(=O)[C@H](CCC(N)=O)NC(=O)[C@H](C)NC(=O)[C@H](CCSC)NC(=O)[C@H](CC(C)C)NC(=O)[C@H](Cc1c[nH]cn1)NC(=O)[C@H](C)NC(=O)[C@H](CC(N)=O)NC(=O)[C@H](CSC1CC(=O)N(CC)C1=O)NC(=O)[C@H](C)NC(=O)[C@H](C)NC(=O)[C@H](CCC(N)=O)NC(=O)[C@H](C)NC(=O)[C@H](CCCNC(=N)N)NC(=O)[C@H](CC(C)C)NC(=O)[C@H](CC(N)=O)NC(=O)[C@H](CCCCN)NC(=O)[C@H](C)NC(=O)[C@H](CCCCN)NC(=O)[C@H](C)NC(=O)[C@@H](NC(=O)[C@H](CC(N)=O)NC(=O)[C@H](Cc1ccccc1)NC(=O)[C@H](CC(C)C)NC(=O)[C@H](CC(C)C)NC(=O)[C@H](CC(N)=O)NC(=O)[C@H](CCSC)NC(=O)[C@@H](NC(=O)[C@H](CC(N)=O)NC(=O)[C@@H](NC(=O)[C@@H]1CCCN1C(=O)[C@@H](NC(=O)[C@H](CC(=O)O)NC(=O)[C@H](CC(C)C)NC(=O)[C@H](CO)NC(=O)[C@H](CC(C)C)NC(=O)[C@@H](NC(=O)[C@H](Cc1ccccc1)NC(=O)[C@H](CCCCN)NC(=O)[C@@H](N)[C@@H](C)O)[C@@H](C)O)C(C)C)[C@@H](C)O)[C@@H](C)CC)[C@@H](C)CC)C(N)=O
B2: Cys-variant of stresscopin peptide with N-Ethylsuccinimide (NES) reactive group SEQ ID NO: 44 (peptide)
peptide: TKFTLSLDVPTNIMNLLFNIAKAKNLRAQAAAC(Succinimide(1-Et,3-yl))AHLMAQI-NH2
modifications: N-terminus assumed
SMILES: CC[C@H](C)[C@H](NC(=O)[C@H](CCC(N)=O)NC(=O)[C@H](C)NC(=O)[C@H](CCSC)NC(=O)[C@H](CC(C)C)NC(=O)[C@H](Cc1c[nH]cn1)NC(=O)[C@H](C)NC(=O)[C@H](CSC1CC(=O)N(CC)C1=O)NC(=O)[C@H](C)NC(=O)[C@H](C)NC(=O)[C@H](C)NC(=O)[C@H](CCC(N)=O)NC(=O)[C@H](C)NC(=O)[C@H](CCCNC(=N)N)NC(=O)[C@H](CC(C)C)NC(=O)[C@H](CC(N)=O)NC(=O)[C@H](CCCCN)NC(=O)[C@H](C)NC(=O)[C@H](CCCCN)NC(=O)[C@H](C)NC(=O)[C@@H](NC(=O)[C@H](CC(N)=O)NC(=O)[C@H](Cc1ccccc1)NC(=O)[C@H](CC(C)C)NC(=O)[C@H](CC(C)C)NC(=O)[C@H](CC(N)=O)NC(=O)[C@H](CCSC)NC(=O)[C@@H](NC(=O)[C@H](CC(N)=O)NC(=O)[C@@H](NC(=O)[C@@H]1CCCN1C(=O)[C@@H](NC(=O)[C@H](CC(=O)O)NC(=O)[C@H](CC(C)C)NC(=O)[C@H](CO)NC(=O)[C@H](CC(C)C)NC(=O)[C@@H](NC(=O)[C@H](Cc1ccccc1)NC(=O)[C@H](CCCCN)NC(=O)[C@@H](N)[C@@H](C)O)[C@@H](C)O)C(C)C)[C@@H](C)O)[C@@H](C)CC)[C@@H](C)CC)C(N)=O
B3: Cys-variant of stresscopin peptide with N-Ethylsuccinimide (NES) reactive group SEQ ID NO: 42 (peptide)
peptide: TKFTLSLDVPTNIMNLLFNIAKAKNLRAQAAANAHLMAQC(Succinimide(1-Et,3-yl))-NH2
modifications: N-terminus assumed
SMILES: CC[C@H](C)[C@H](NC(=O)[C@H](CC(N)=O)NC(=O)[C@H](Cc1ccccc1)NC(=O)[C@H](CC(C)C)NC(=O)[C@H](CC(C)C)NC(=O)[C@H](CC(N)=O)NC(=O)[C@H](CCSC)NC(=O)[C@@H](NC(=O)[C@H](CC(N)=O)NC(=O)[C@@H](NC(=O)[C@@H]1CCCN1C(=O)[C@@H](NC(=O)[C@H](CC(=O)O)NC(=O)[C@H](CC(C)C)NC(=O)[C@H](CO)NC(=O)[C@H](CC(C)C)NC(=O)[C@@H](NC(=O)[C@H](Cc1ccccc1)NC(=O)[C@H](CCCCN)NC(=O)[C@@H](N)[C@@H](C)O)[C@@H](C)O)C(C)C)[C@@H](C)O)[C@@H](C)CC)C(=O)N[C@@H](C)C(=O)N[C@@H](CCCCN)C(=O)N[C@@H](C)C(=O)N[C@@H](CCCCN)C(=O)N[C@@H](CC(N)=O)C(=O)N[C@@H](CC(C)C)C(=O)N[C@@H](CCCNC(=N)N)C(=O)N[C@@H](C)C(=O)N[C@@H](CCC(N)=O)C(=O)N[C@@H](C)C(=O)N[C@@H](C)C(=O)N[C@@H](C)C(=O)N[C@@H](CC(N)=O)C(=O)N[C@@H](C)C(=O)N[C@@H](Cc1c[nH]cn1)C(=O)N[C@@H](CC(C)C)C(=O)N[C@@H](CCSC)C(=O)N[C@@H](C)C(=O)N[C@@H](CCC(N)=O)C(=O)N[C@@H](CSC1CC(=O)N(CC)C1=O)C(N)=O
B4: Cys-variant of stresscopin peptide with N-Ethylsuccinimide (NES) reactive group SEQ ID NO: 43 (peptide)
peptide: TKFTLSLDVPTNIMNLLFNIAKAKNLRAQAAANAC(Succinimide(1-Et,3-yl))LMAQI-NH2
modifications: N-terminus assumed
SMILES: CC[C@H](C)[C@H](NC(=O)[C@H](CCC(N)=O)NC(=O)[C@H](C)NC(=O)[C@H](CCSC)NC(=O)[C@H](CC(C)C)NC(=O)[C@H](CSC1CC(=O)N(CC)C1=O)NC(=O)[C@H](C)NC(=O)[C@H](CC(N)=O)NC(=O)[C@H](C)NC(=O)[C@H](C)NC(=O)[C@H](C)NC(=O)[C@H](CCC(N)=O)NC(=O)[C@H](C)NC(=O)[C@H](CCCNC(=N)N)NC(=O)[C@H](CC(C)C)NC(=O)[C@H](CC(N)=O)NC(=O)[C@H](CCCCN)NC(=O)[C@H](C)NC(=O)[C@H](CCCCN)NC(=O)[C@H](C)NC(=O)[C@@H](NC(=O)[C@H](CC(N)=O)NC(=O)[C@H](Cc1ccccc1)NC(=O)[C@H](CC(C)C)NC(=O)[C@H](CC(C)C)NC(=O)[C@H](CC(N)=O)NC(=O)[C@H](CCSC)NC(=O)[C@@H](NC(=O)[C@H](CC(N)=O)NC(=O)[C@@H](NC(=O)[C@@H]1CCCN1C(=O)[C@@H](NC(=O)[C@H](CC(=O)O)NC(=O)[C@H](CC(C)C)NC(=O)[C@H](CO)NC(=O)[C@H](CC(C)C)NC(=O)[C@@H](NC(=O)[C@H](Cc1ccccc1)NC(=O)[C@H](CCCCN)NC(=O)[C@@H](N)[C@@H](C)O)[C@@H](C)O)C(C)C)[C@@H](C)O)[C@@H](C)CC)[C@@H](C)CC)C(N)=O
B5: Pegylated Cys-variant stresscopin-like peptide, NES-PEG MW20000 & DOUBLE-ENDED, SEQ ID NO: 98 (peptide)
peptide: TKFTLSLDVPTNIMNLLFNIAKAKNLRCQAAANAHLMAQI-NH2
modifications: not fully specified (residue 28); also: PEG with maleimide at both ends, peptide chains per PEG not given here

Where no end group is shown, it is not given here. The star is where a group is joined. Succinimide(1-Et,3-yl) = CCN1C(=O)CC(*)C1=O

The assay addresses T1, human corticotrophin releasing hormone …. Nature of the assay: cell-based or functional assay.
As for TKFTLSLDVPTNIMNLLFNIAKAKNLRAQAAANAHLMACI-NH2 [Cys-variant stresscopin-like peptide SEQ ID NO: 40], the “Log DR” value was determined as 0.55 log10 and the pA50 is 9.08 -log10(M).
On the same counts, the results for B1 are -0.01 log10 and 9.48 -log10(M).
Consider TKFTLSLDVPTNIMNLLFNIAKAKNLRAQAAANAHLMCQI (NES-PEG (about 20 kDa) on Cys 38; C-terminal amide (-NH2)) [Pegylated Cys-variant stresscopin-like peptide with NES linker and PEG about 20 kDa SEQ ID NO: 92], for which the “Log DR” value was found to be 1.55 log10 and the pA50 is 8.12 -log10(M).
The like results for TKFTLSLDVPTNIMNLLFNIAKAKNLRAQAAANAHLMACI (NES-PEG (about 20 kDa) on Cys 39; C-terminal amide (-NH2)) [Pegylated Cys-variant stresscopin-like peptide with NES linker and PEG about 20 kDa SEQ ID NO: 93] were, in that order, 1.47 log10 and 8.2 -log10(M).
The like results for TKFTLSLDVPTNIMNLLFNIAKAKNLRCQAAANAHLMAQI (NES-PEG MW5000 on Cys 28; C-terminal amide (-NH2)) [Pegylated Cys-variant stresscopin-like peptide, NES-PEG MW5000, SEQ ID NO: 96] were, in that order, 1 log10 and 8.74 -log10(M).
On the same counts, the results for TKFTLSLDVPTNIMNLLFNIAKAKNLRAQAAANAHLMAQC (NES-PEG (about 20 kDa) on Cys 40; C-terminal amide (-NH2)) [Pegylated Cys-variant stresscopin-like peptide with NES linker and PEG about 20 kDa SEQ ID NO: 94] are > 2.39 log10 and ~7 -log10(M).
Regarding TKFTLSLDVPTNIMNLLFNIAKAKNLRCQAAANAHLMAQI (NES-PEG MW12000 on Cys 28; C-terminal amide (-NH2)) [Pegylated Cys-variant stresscopin-like peptide, NES-PEG MW12000, SEQ ID NO: 97], the “Log DR” value was ~0.74 log10 and the pA50 was ~9 -log10(M).
On to TKFTLSLDVPTNIMNLLFNIAKAKNLRCQAAANAHLMAQI (NES-PEG MW2000 on Cys 28; C-terminal amide (-NH2)) [Pegylated Cys-variant stresscopin-like peptide, NES-PEG MW2000, SEQ ID NO: 95], for which the “Log DR” value came out at 0.43 log10 and the pA50 was 9.31 -log10(M).
On the same counts, the results for TKFTLSLDVPTNIMNLLFNIAKAKNLRCQAAANAHLMAQI (NES-PEG MW30000 on Cys 28; C-terminal amide (-NH2)) [Pegylated Cys-variant stresscopin-like peptide, NES-PEG MW30000, SEQ ID NO: 99] are 0.8 log10 and 8.94 -log10(M).
The like results for B2 were, in that order, ~1.97 log10 and ~7.5 -log10(M).
The like results for B3 were, in that order, ~1.72 log10 and ~7.75 -log10(M).
B4: the “Log DR” value was -0.32 log10 and the pA50 was 9.79 -log10(M).
On the same counts, the results for TKFTLSLDVPTNIMNLLFNIAKAKNLRAQAAANAHLMAQC-NH2 [Cys-variant stresscopin-like peptide SEQ ID NO: 41] are 2.07 log10 and 7.45 -log10(M).
The like results for B5 were, in that order, 0.18 log10 and 9.5 -log10(M).

(Values after patent US20110105397A1, “METHOD FOR TREATING HEART FAILURE WITH STRESSCOPIN-LIKE PEPTIDES” (priority 2009, published 2011).)
